21 molecules from patent US20250368745A1 (published 2025) can be followed below.

T1: human IL-18BP (human, UniProt O95998 31-194)
T1 construct: UniProt printed as 095998; also called hIL-18BP
T1 sequence: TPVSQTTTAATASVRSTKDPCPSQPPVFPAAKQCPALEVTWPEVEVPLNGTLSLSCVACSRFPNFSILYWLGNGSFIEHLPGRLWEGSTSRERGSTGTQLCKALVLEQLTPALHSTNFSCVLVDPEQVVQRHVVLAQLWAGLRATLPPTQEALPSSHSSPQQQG

B1: SA301a HC-S56V (antibody, name in Kabat numbering, V domains shown)
VH: QVQLQESGPGLVKPSQTLSLTCTVSGYSITSDYNSHWIRQPPGKGLEWIGYIHYSGVTNYNPSLKSRVTISRDTSKNQFSLKLSSVTAADTAVYYCARNYGSIYVNYFDYWGQGTLVTVSS
VL: EIVLTQSPATLSLSPGERATLSCSASSSVSYMYWYQQKPGQAPRPLIYRTSNLASGIPARFSGSGSGTDFTLTISSLEPEDFAVYYCQQYHSYPTFGGGTKVEIK
notes: IgG1 kappa
B2: SA301a HC-Y59A (antibody, name in Kabat numbering, V domains shown)
VH: QVQLQESGPGLVKPSQTLSLTCTVSGYSITSDYNSHWIRQPPGKGLEWIGYIHYSGSTNANPSLKSRVTISRDTSKNQFSLKLSSVTAADTAVYYCARNYGSIYVNYFDYWGQGTLVTVSS
VL: EIVLTQSPATLSLSPGERATLSCSASSSVSYMYWYQQKPGQAPRPLIYRTSNLASGIPARFSGSGSGTDFTLTISSLEPEDFAVYYCQQYHSYPTFGGGTKVEIK
notes: IgG1 kappa
B3: SA301a HC-T57E (antibody, name in Kabat numbering, V domains shown)
VH: QVQLQESGPGLVKPSQTLSLTCTVSGYSITSDYNSHWIRQPPGKGLEWIGYIHYSGSENYNPSLKSRVTISRDTSKNQFSLKLSSVTAADTAVYYCARNYGSIYVNYFDYWGQGTLVTVSS
VL: EIVLTQSPATLSLSPGERATLSCSASSSVSYMYWYQQKPGQAPRPLIYRTSNLASGIPARFSGSGSGTDFTLTISSLEPEDFAVYYCQQYHSYPTFGGGTKVEIK
notes: IgG1 kappa
B4: SA301a HC-T57R (antibody, name in Kabat numbering, V domains shown)
VH: QVQLQESGPGLVKPSQTLSLTCTVSGYSITSDYNSHWIRQPPGKGLEWIGYIHYSGSRNYNPSLKSRVTISRDTSKNQFSLKLSSVTAADTAVYYCARNYGSIYVNYFDYWGQGTLVTVSS
VL: EIVLTQSPATLSLSPGERATLSCSASSSVSYMYWYQQKPGQAPRPLIYRTSNLASGIPARFSGSGSGTDFTLTISSLEPEDFAVYYCQQYHSYPTFGGGTKVEIK
notes: IgG1 kappa
B5: SA301a HC-T57S (antibody, name in Kabat numbering, V domains shown)
VH: QVQLQESGPGLVKPSQTLSLTCTVSGYSITSDYNSHWIRQPPGKGLEWIGYIHYSGSSNYNPSLKSRVTISRDTSKNQFSLKLSSVTAADTAVYYCARNYGSIYVNYFDYWGQGTLVTVSS
VL: EIVLTQSPATLSLSPGERATLSCSASSSVSYMYWYQQKPGQAPRPLIYRTSNLASGIPARFSGSGSGTDFTLTISSLEPEDFAVYYCQQYHSYPTFGGGTKVEIK
notes: IgG1 kappa
B6: SA301a HC-T57M (antibody, name in Kabat numbering, V domains shown)
VH: QVQLQESGPGLVKPSQTLSLTCTVSGYSITSDYNSHWIRQPPGKGLEWIGYIHYSGSMNYNPSLKSRVTISRDTSKNQFSLKLSSVTAADTAVYYCARNYGSIYVNYFDYWGQGTLVTVSS
VL: EIVLTQSPATLSLSPGERATLSCSASSSVSYMYWYQQKPGQAPRPLIYRTSNLASGIPARFSGSGSGTDFTLTISSLEPEDFAVYYCQQYHSYPTFGGGTKVEIK
notes: IgG1 kappa
B7: SA301a HC-T57N (antibody, name in Kabat numbering, V domains shown)
VH: QVQLQESGPGLVKPSQTLSLTCTVSGYSITSDYNSHWIRQPPGKGLEWIGYIHYSGSNNYNPSLKSRVTISRDTSKNQFSLKLSSVTAADTAVYYCARNYGSIYVNYFDYWGQGTLVTVSS
VL: EIVLTQSPATLSLSPGERATLSCSASSSVSYMYWYQQKPGQAPRPLIYRTSNLASGIPARFSGSGSGTDFTLTISSLEPEDFAVYYCQQYHSYPTFGGGTKVEIK
notes: IgG1 kappa
B8: SA301a HC-Y59E (antibody, name in Kabat numbering, V domains shown)
VH: QVQLQESGPGLVKPSQTLSLTCTVSGYSITSDYNSHWIRQPPGKGLEWIGYIHYSGSTNENPSLKSRVTISRDTSKNQFSLKLSSVTAADTAVYYCARNYGSIYVNYFDYWGQGTLVTVSS
VL: EIVLTQSPATLSLSPGERATLSCSASSSVSYMYWYQQKPGQAPRPLIYRTSNLASGIPARFSGSGSGTDFTLTISSLEPEDFAVYYCQQYHSYPTFGGGTKVEIK
notes: IgG1 kappa
B9: SA301a HC-S56Y (antibody, name in Kabat numbering, V domains shown)
VH: QVQLQESGPGLVKPSQTLSLTCTVSGYSITSDYNSHWIRQPPGKGLEWIGYIHYSGYTNYNPSLKSRVTISRDTSKNQFSLKLSSVTAADTAVYYCARNYGSIYVNYFDYWGQGTLVTVSS
VL: EIVLTQSPATLSLSPGERATLSCSASSSVSYMYWYQQKPGQAPRPLIYRTSNLASGIPARFSGSGSGTDFTLTISSLEPEDFAVYYCQQYHSYPTFGGGTKVEIK
notes: IgG1 kappa
B10: SA301a HC-T57L (antibody, name in Kabat numbering, V domains shown)
VH: QVQLQESGPGLVKPSQTLSLTCTVSGYSITSDYNSHWIRQPPGKGLEWIGYIHYSGSLNYNPSLKSRVTISRDTSKNQFSLKLSSVTAADTAVYYCARNYGSIYVNYFDYWGQGTLVTVSS
VL: EIVLTQSPATLSLSPGERATLSCSASSSVSYMYWYQQKPGQAPRPLIYRTSNLASGIPARFSGSGSGTDFTLTISSLEPEDFAVYYCQQYHSYPTFGGGTKVEIK
notes: IgG1 kappa
B11: SA301a HC-T57F (antibody, name in Kabat numbering, V domains shown)
VH: QVQLQESGPGLVKPSQTLSLTCTVSGYSITSDYNSHWIRQPPGKGLEWIGYIHYSGSFNYNPSLKSRVTISRDTSKNQFSLKLSSVTAADTAVYYCARNYGSIYVNYFDYWGQGTLVTVSS
VL: EIVLTQSPATLSLSPGERATLSCSASSSVSYMYWYQQKPGQAPRPLIYRTSNLASGIPARFSGSGSGTDFTLTISSLEPEDFAVYYCQQYHSYPTFGGGTKVEIK
notes: IgG1 kappa
B12: SA301a HC-T57Q (antibody, name in Kabat numbering, V domains shown)
VH: QVQLQESGPGLVKPSQTLSLTCTVSGYSITSDYNSHWIRQPPGKGLEWIGYIHYSGSQNYNPSLKSRVTISRDTSKNQFSLKLSSVTAADTAVYYCARNYGSIYVNYFDYWGQGTLVTVSS
VL: EIVLTQSPATLSLSPGERATLSCSASSSVSYMYWYQQKPGQAPRPLIYRTSNLASGIPARFSGSGSGTDFTLTISSLEPEDFAVYYCQQYHSYPTFGGGTKVEIK
notes: IgG1 kappa
B13: SA301a HC-T57A (antibody, name in Kabat numbering, V domains shown)
VH: QVQLQESGPGLVKPSQTLSLTCTVSGYSITSDYNSHWIRQPPGKGLEWIGYIHYSGSANYNPSLKSRVTISRDTSKNQFSLKLSSVTAADTAVYYCARNYGSIYVNYFDYWGQGTLVTVSS
VL: EIVLTQSPATLSLSPGERATLSCSASSSVSYMYWYQQKPGQAPRPLIYRTSNLASGIPARFSGSGSGTDFTLTISSLEPEDFAVYYCQQYHSYPTFGGGTKVEIK
notes: IgG1 kappa
B14: SA301a HC-T57Y (antibody, name in Kabat numbering, V domains shown)
VH: QVQLQESGPGLVKPSQTLSLTCTVSGYSITSDYNSHWIRQPPGKGLEWIGYIHYSGSYNYNPSLKSRVTISRDTSKNQFSLKLSSVTAADTAVYYCARNYGSIYVNYFDYWGQGTLVTVSS
VL: EIVLTQSPATLSLSPGERATLSCSASSSVSYMYWYQQKPGQAPRPLIYRTSNLASGIPARFSGSGSGTDFTLTISSLEPEDFAVYYCQQYHSYPTFGGGTKVEIK
notes: IgG1 kappa
B15: SA301a HC-T57K (antibody, name in Kabat numbering, V domains shown)
VH: QVQLQESGPGLVKPSQTLSLTCTVSGYSITSDYNSHWIRQPPGKGLEWIGYIHYSGSKNYNPSLKSRVTISRDTSKNQFSLKLSSVTAADTAVYYCARNYGSIYVNYFDYWGQGTLVTVSS
VL: EIVLTQSPATLSLSPGERATLSCSASSSVSYMYWYQQKPGQAPRPLIYRTSNLASGIPARFSGSGSGTDFTLTISSLEPEDFAVYYCQQYHSYPTFGGGTKVEIK
notes: IgG1 kappa
B16: SA301a HC-T57D (antibody, name in Kabat numbering, V domains shown)
VH: QVQLQESGPGLVKPSQTLSLTCTVSGYSITSDYNSHWIRQPPGKGLEWIGYIHYSGSDNYNPSLKSRVTISRDTSKNQFSLKLSSVTAADTAVYYCARNYGSIYVNYFDYWGQGTLVTVSS
VL: EIVLTQSPATLSLSPGERATLSCSASSSVSYMYWYQQKPGQAPRPLIYRTSNLASGIPARFSGSGSGTDFTLTISSLEPEDFAVYYCQQYHSYPTFGGGTKVEIK
notes: IgG1 kappa
B17: SA301a HC-T57I (antibody, name in Kabat numbering, V domains shown)
VH: QVQLQESGPGLVKPSQTLSLTCTVSGYSITSDYNSHWIRQPPGKGLEWIGYIHYSGSINYNPSLKSRVTISRDTSKNQFSLKLSSVTAADTAVYYCARNYGSIYVNYFDYWGQGTLVTVSS
VL: EIVLTQSPATLSLSPGERATLSCSASSSVSYMYWYQQKPGQAPRPLIYRTSNLASGIPARFSGSGSGTDFTLTISSLEPEDFAVYYCQQYHSYPTFGGGTKVEIK
notes: IgG1 kappa
B18: SA301a HC-Y59D (antibody, name in Kabat numbering, V domains shown)
VH: QVQLQESGPGLVKPSQTLSLTCTVSGYSITSDYNSHWIRQPPGKGLEWIGYIHYSGSTNDNPSLKSRVTISRDTSKNQFSLKLSSVTAADTAVYYCARNYGSIYVNYFDYWGQGTLVTVSS
VL: EIVLTQSPATLSLSPGERATLSCSASSSVSYMYWYQQKPGQAPRPLIYRTSNLASGIPARFSGSGSGTDFTLTISSLEPEDFAVYYCQQYHSYPTFGGGTKVEIK
notes: IgG1 kappa
B19: SA301a HC-T57G (antibody, name in Kabat numbering, V domains shown)
VH: QVQLQESGPGLVKPSQTLSLTCTVSGYSITSDYNSHWIRQPPGKGLEWIGYIHYSGSGNYNPSLKSRVTISRDTSKNQFSLKLSSVTAADTAVYYCARNYGSIYVNYFDYWGQGTLVTVSS
VL: EIVLTQSPATLSLSPGERATLSCSASSSVSYMYWYQQKPGQAPRPLIYRTSNLASGIPARFSGSGSGTDFTLTISSLEPEDFAVYYCQQYHSYPTFGGGTKVEIK
notes: IgG1 kappa
B20: SA301a HC-T57V (antibody, name in Kabat numbering, V domains shown)
VH: QVQLQESGPGLVKPSQTLSLTCTVSGYSITSDYNSHWIRQPPGKGLEWIGYIHYSGSVNYNPSLKSRVTISRDTSKNQFSLKLSSVTAADTAVYYCARNYGSIYVNYFDYWGQGTLVTVSS
VL: EIVLTQSPATLSLSPGERATLSCSASSSVSYMYWYQQKPGQAPRPLIYRTSNLASGIPARFSGSGSGTDFTLTISSLEPEDFAVYYCQQYHSYPTFGGGTKVEIK
notes: IgG1 kappa
B21: SA301a HC-Y59F (antibody, name in Kabat numbering, V domains shown)
VH: QVQLQESGPGLVKPSQTLSLTCTVSGYSITSDYNSHWIRQPPGKGLEWIGYIHYSGSTNFNPSLKSRVTISRDTSKNQFSLKLSSVTAADTAVYYCARNYGSIYVNYFDYWGQGTLVTVSS
VL: EIVLTQSPATLSLSPGERATLSCSASSSVSYMYWYQQKPGQAPRPLIYRTSNLASGIPARFSGSGSGTDFTLTISSLEPEDFAVYYCQQYHSYPTFGGGTKVEIK
notes: IgG1 kappa

Several values for one entry are separate records, joined by “and”; a condition that tells them apart may be missing. Identical values can stand only once.

This assay has as its target T1, human IL-18BP. Kind of assay: BLI, apparent KD. (In general: BLI is a label-free optical method that tracks binding on a fibre tip over time.)
In the case of B1, the Kd was 0.25 nM.

With B2, the Kd amounted to 0.35 nM.

Turning to B3, the Kd came out at 0.42 nM.

For the molecule B4, the Kd was 0.67 nM.

Regarding B5, the Kd turned out to be 0.37 nM.

On to B6, for which the Kd came out at 0.18 nM.

On to B7, for which the Kd came out at 0.86 nM.

As for B8, the Kd is 0.18 nM.

As for B9, the Kd stood at 1 nM.

Turning to B10, the Kd turned out to be 0.32 nM.

On to B11, for which the Kd is 1.22 nM.

Regarding B12, the Kd is 0.91 nM.

As for B13, the Kd is 0.9 nM.

For the molecule B14, the Kd turned out to be 1.74 nM.

As for B15, the Kd was found to be 0.52 nM.

With B16, the Kd worked out at 1.73 nM.

In the case of B17, the Kd worked out at 0.28 nM.

In the case of B18, the Kd is 1.25 nM and 0.63 nM.

Consider B19, for which the Kd turned out to be 0.11 nM.

Consider B20, for which the Kd is 0.36 nM.

As to B21, the Kd was determined as 0.87 nM.
